The record followed here is PMC10987413.

The data set deals with GST-DCL3 F5 (UniProt Q9LXW7). The data set is described as follows: MST. To be noted: MST: 50 mM Tris-HCl pH 7.4, 150 mM NaCl, 10 mM MgCl2, 0.01% Tween 20, 100 nM RED-NHS labelled protein, incubation 5 min at room temperature (instrument printed …).
Chain of UniProt Q9LXW7 (Q9LXW7 whole entry): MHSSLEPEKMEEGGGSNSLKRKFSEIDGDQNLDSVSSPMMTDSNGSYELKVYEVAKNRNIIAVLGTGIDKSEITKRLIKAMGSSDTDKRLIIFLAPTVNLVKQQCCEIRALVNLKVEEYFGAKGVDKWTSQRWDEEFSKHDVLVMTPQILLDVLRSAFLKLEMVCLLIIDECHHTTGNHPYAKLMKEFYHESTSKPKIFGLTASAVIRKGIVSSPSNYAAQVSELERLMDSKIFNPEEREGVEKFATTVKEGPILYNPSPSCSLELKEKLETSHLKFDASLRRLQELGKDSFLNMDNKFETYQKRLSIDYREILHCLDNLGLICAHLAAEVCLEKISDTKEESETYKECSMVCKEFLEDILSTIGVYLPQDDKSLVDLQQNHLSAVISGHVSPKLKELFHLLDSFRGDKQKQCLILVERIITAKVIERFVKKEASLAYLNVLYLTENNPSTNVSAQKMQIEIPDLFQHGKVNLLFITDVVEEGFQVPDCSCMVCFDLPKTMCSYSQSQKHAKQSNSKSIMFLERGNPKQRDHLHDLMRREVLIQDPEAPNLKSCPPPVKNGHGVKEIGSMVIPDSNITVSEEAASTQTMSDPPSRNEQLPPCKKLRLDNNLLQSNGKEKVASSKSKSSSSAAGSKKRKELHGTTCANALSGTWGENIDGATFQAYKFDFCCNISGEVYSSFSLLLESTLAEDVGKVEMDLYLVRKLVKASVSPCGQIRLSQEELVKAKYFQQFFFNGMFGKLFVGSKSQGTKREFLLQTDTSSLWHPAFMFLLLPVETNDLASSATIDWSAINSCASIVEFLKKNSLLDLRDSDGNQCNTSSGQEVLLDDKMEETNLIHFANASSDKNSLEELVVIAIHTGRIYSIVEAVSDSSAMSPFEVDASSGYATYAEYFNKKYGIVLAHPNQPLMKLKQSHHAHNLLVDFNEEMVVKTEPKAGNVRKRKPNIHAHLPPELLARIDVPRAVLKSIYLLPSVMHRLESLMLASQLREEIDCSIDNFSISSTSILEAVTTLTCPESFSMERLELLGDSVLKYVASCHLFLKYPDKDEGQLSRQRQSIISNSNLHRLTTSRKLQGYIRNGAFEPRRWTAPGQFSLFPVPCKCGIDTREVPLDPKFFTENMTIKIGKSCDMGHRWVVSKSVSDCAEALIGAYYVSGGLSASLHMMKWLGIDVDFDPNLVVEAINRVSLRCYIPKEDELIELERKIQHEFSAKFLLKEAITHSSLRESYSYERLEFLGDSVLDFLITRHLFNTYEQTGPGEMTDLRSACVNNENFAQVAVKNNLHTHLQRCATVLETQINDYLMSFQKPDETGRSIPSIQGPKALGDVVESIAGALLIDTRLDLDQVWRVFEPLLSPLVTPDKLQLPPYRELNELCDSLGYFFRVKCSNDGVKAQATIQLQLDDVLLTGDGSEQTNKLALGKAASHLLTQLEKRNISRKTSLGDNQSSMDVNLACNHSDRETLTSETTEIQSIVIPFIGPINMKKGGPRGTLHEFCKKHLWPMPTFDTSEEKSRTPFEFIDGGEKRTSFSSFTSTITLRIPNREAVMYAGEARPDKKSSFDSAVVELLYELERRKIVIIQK
For “UCAACAGGAUCGAGCUUAAGG / UUAAGCUCGAUCCUGUUGACG [21-bp ds-sRNA (ds siRGFP)]”, the equilibrium dissociation constant (Kd) is 0.575 µM.

With 24-nt ss-sRNA, the Kd worked out at 1.22 µM. Compared with the last substance, the Kd is about 2.1-fold higher.

In the case of 21-nt ss-sRNA, the dissociation constant (Kd) stood at 1.87 µM.

As for “UCGCUUGGUGCAGGUCGGGAA / CCCGCCUUGCAUCAACUGAAU [miR168a duplex]”, the dissociation constant Kd came out at 1.06 µM.

With 55-nt ss-sRNA, the Kd turned out to be 1.16 µM.

Substance “UGAAUUUCUGGUAUGGGUCCCGCC / CGGGACCCAUACCAGAAAUUCAUC [24-bp ds-sRNA (dsAtSN1)]” displayed a Kd of 0.553 µM.

As to “UACAAGACACGUGCUGAAGUCAAGUUUGAGGGAACACCCUCGUCAACAGGAUCG / AUCCUGUUGACGAGGGUGUCUCCCUCAAACUUGACUUCAGCACGUGUCUUGUAGU [55-bp ds-sRNA]”, the Kd came out at 0.582 µM.

Turning to “AGAAUCUUGAUGAUGCUGCAU / GUGGCAUCAUCAAGAUUCACA [miR172a duplex]”, the Kd is 0.927 µM.

By Kd is commonly meant the constant that tells how readily two partners part at equilibrium. High values mean weaker binding, low ones tighter binding.
